The source of these data is PMC3784749.

A word on the stoichiometry N: it is a count of units in the complex or per binding partner.

For the test, the target named is glutathione S-transferase from Schistosoma japonicum (Schistosoma japonicum). The experiment in a line: SAXS; GST alone in 20 mM phosphate, 80 mM NaCl, pH 8.0, 20 °C; shape reconstruction (GASBOR, DAMAVER) superimposed on crystal structure 1UA5.

On to “glutathione S-transferase from Schistosoma japonicum (enzyme)”, for which the stoichiometry N is 2.
